Reference: article PMC6706427

Molecular target: Flag-CLIC4-Y104A (dog)
Test: co-IP; lysates of co-transfected 293T cells in RIPA buffer plus 0.5% CHAPS; anti-Flag or control antibody; Protein-G Dynabeads; 4 °C overnight; 4 washes; blots quantified with the Odyssey system, three independent repeats

Question: With “mCherry-Tsg101 (from UniProt Q99816 1-390) (natural protein)” as the substance, how does the percent reduction of co-precipitation against Flag-CLIC4 wild type read?
Answer: 40.4 % reduced
